# Assay results: patent publication US20250269012A1 (AKAMIS BIO, published 2025)
# T1: EpCAM (human, UniProt P16422 24-314)
# T1 construct: whole, on cells; also called EpCAM cell surface target antigen on A549 and SKOV3 cells
# T1 sequence (looked up): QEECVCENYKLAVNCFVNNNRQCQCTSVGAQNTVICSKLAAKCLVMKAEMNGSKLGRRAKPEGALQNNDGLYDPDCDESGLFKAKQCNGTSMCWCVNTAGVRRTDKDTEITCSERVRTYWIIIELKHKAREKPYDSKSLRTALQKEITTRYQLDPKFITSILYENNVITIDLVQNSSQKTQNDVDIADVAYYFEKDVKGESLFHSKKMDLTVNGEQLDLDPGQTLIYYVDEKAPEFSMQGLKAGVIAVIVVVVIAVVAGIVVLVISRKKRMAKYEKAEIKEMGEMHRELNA
# B1: anti-EpCAM-ScFv-rigid linker-human CD19 EC domain fusion protein (without a C-terminal tag) (other)
# chain: ELVMTQSPSSLTVTAGEKVTMSCKSSQSLLNSGNQKNYLTWYQQKPGQPPKLLIYWASTRESGVPDRFTGSGSGTDFTLTISSVQAEDLAVYYCQNDYSYPLTFGAGTKLEIKGGGGSGGGGSGGGGSEVQLLEQSGAELVRPGTSVKISCKASGYAFTNYWLGWVKQRPGHGLEWIGDIFPGSGNIHYNEKFKGKATLTADKSSSTAYMQLSSLTFEDSAVYFCARLRNWDEPMDYWGQGTTVTVSSTPSHLSHILPSFGLPTFNPEEPLVVKVEEGDNAVLQCLKGTSDGPTQQLTWSRESPLKPFLKLSLGLPGLGIHMRPLAIWLFIFNVSQQMGGFYLCQPGPPSEKAWQPGWTVNVEGSGELFRWNVSDLGGLGCGLKNRSSEGPSSPSGKLMSPKLYVWAKDRPEIWEGEPPCVPPRDSLNQSLSQDLTMAPGSTLWLSCGVPPDSVSRGPLSWTHVHPKGPKSLLSLELKDDRPARDMWVMETGLLLPRATAQDAGKYYCHRGNLTMSFHLEITAR
# notes: also called bispecific protein of NG-1114; bispecific protein of NG-1116
# B2: human CD19 EC domain-anti-EpCAM-ScFv fusion protein (without a C-terminal tag) (other)
# chain: PEEPLVVKVEEGDNAVLQCLKGTSDGPTQQLTWSRESPLKPFLKLSLGLPGLGIHMRPLAIWLFIFNVSQQMGGFYLCQPGPPSEKAWQPGWTVNVEGSGELFRWNVSDLGGLGCGLKNRSSEGPSSPSGKLMSPKLYVWAKDRPEIWEGEPPCVPPRDSLNQSLSQDLTMAPGSTLWLSCGVPPDSVSRGPLSWTHVHPKGPKSLLSLELKDDRPARDMWVMETGLLLPRATAQDAGKYYCHRGNLTMSFHLEITARPVLWHWLLRTGGWKGGGGSELVMTQSPSSLTVTAGEKVTMSCKSSQSLLNSGNQKNYLTWYQQKPGQPPKLLIYWASTRESGVPDRFTGSGSGTDFTLTISSVQAEDLAVYYCQNDYSYPLTFGAGTKLEIKGGGGSGGGGSGGGGSEVQLLEQSGAELVRPGTSVKISCKASGYAFTNYWLGWVKQRPGHGLEWIGDIFPGSGNIHYNEKFKGKATLTADKSSSTAYMQLSSLTFEDSAVYFCARLRNWDEPMDYWGQGTTVTVSS
# notes: also called bispecific protein of NG-1110
# B3: anti-EpCAM-ScFv-human CD19 EC domain fusion protein (without a C-terminal tag) (other)
# chain: ELVMTQSPSSLTVTAGEKVTMSCKSSQSLLNSGNQKNYLTWYQQKPGQPPKLLIYWASTRESGVPDRFTGSGSGTDFTLTISSVQAEDLAVYYCQNDYSYPLTFGAGTKLEIKGGGGSGGGGSGGGGSEVQLLEQSGAELVRPGTSVKISCKASGYAFTNYWLGWVKQRPGHGLEWIGDIFPGSGNIHYNEKFKGKATLTADKSSSTAYMQLSSLTFEDSAVYFCARLRNWDEPMDYWGQGTTVTVSSGGGGSPEEPLVVKVEEGDNAVLQCLKGTSDGPTQQLTWSRESPLKPFLKLSLGLPGLGIHMRPLAIWLFIFNVSQQMGGFYLCQPGPPSEKAWQPGWTVNVEGSGELFRWNVSDLGGLGCGLKNRSSEGPSSPSGKLMSPKLYVWAKDRPEIWEGEPPCVPPRDSLNQSLSQDLTMAPGSTLWLSCGVPPDSVSRGPLSWTHVHPKGPKSLLSLELKDDRPARDMWVMETGLLLPRATAQDAGKYYCHRGNLTMSFHLEITARPVLWHWLLRTGGWK
# notes: also called bispecific protein of NG-1109
# B4: RAET1G3-anti-EpCAM-ScFv fusion protein (without a C-terminal tag) (other)
# chain: GLADPHSLCYDITVIPKFRPGPRWCAVQGQVDEKTFLHYDCGSKTVTPVSPLGKKLNVTTAWKAQNPVLREVVDILTEQLLDIQLENYIPKENRMWTTVHPGARKMKEKWENDKDMTMSFHYISMGDCTGWLEDFLMGMDSTLEPSAGGTVGGGGSELVMTQSPSSLTVTAGEKVTMSCKSSQSLLNSGNQKNYLTWYQQKPGQPPKLLIYWASTRESGVPDRFTGSGSGTDFTLTISSVQAEDLAVYYCQNDYSYPLTFGAGTKLEIKGGGGSGGGGSGGGGSEVQLLEQSGAELVRPGTSVKISCKASGYAFTNYWLGWVKQRPGHGLEWIGDIFPGSGNIHYNEKFKGKATLTADKSSSTAYMQLSSLTFEDSAVYFCARLRNWDEPMDYWGQGTTVTVSS
# notes: also called bispecific protein of NG-1112
# B5: anti-EpCAM-ScFv-flexible linker-RAET1G3 fusion protein (without a C-terminal tag) (other)
# chain: ELVMTQSPSSLTVTAGEKVTMSCKSSQSLLNSGNQKNYLTWYQQKPGQPPKLLIYWASTRESGVPDRFTGSGSGTDFTLTISSVQAEDLAVYYCQNDYSYPLTFGAGTKLEIKGGGGSGGGGSGGGGSEVQLLEQSGAELVRPGTSVKISCKASGYAFTNYWLGWVKQRPGHGLEWIGDIFPGSGNIHYNEKFKGKATLTADKSSSTAYMQLSSLTFEDSAVYFCARLRNWDEPMDYWGQGTTVTVSSGAGGSGGSSGSDGASGSRGLADPHSLCYDITVIPKFRPGPRWCAVQGQVDEKTFLHYDCGSKTVTPVSPLGKKLNVTTAWKAQNPVLREVVDILTEQLLDIQLENYIPKENRMWTTVHPGARKMKEKWENDKDMTMSFHYISMGDCTGWLEDFLMGMDSTLEPSAGGTV
# notes: also called bispecific protein of NG-1117
# B6: anti-EpCAM-ScFv-RAET1G3 fusion protein (without a C-terminal tag) (other)
# chain: ELVMTQSPSSLTVTAGEKVTMSCKSSQSLLNSGNQKNYLTWYQQKPGQPPKLLIYWASTRESGVPDRFTGSGSGTDFTLTISSVQAEDLAVYYCQNDYSYPLTFGAGTKLEIKGGGGSGGGGSGGGGSEVQLLEQSGAELVRPGTSVKISCKASGYAFTNYWLGWVKQRPGHGLEWIGDIFPGSGNIHYNEKFKGKATLTADKSSSTAYMQLSSLTFEDSAVYFCARLRNWDEPMDYWGQGTTVTVSSGGGGSGLADPHSLCYDITVIPKFRPGPRWCAVQGQVDEKTFLHYDCGSKTVTPVSPLGKKLNVTTAWKAQNPVLREVVDILTEQLLDIQLENYIPKENRMWTTVHPGARKMKEKWENDKDMTMSFHYISMGDCTGWLEDFLMGMDSTLEPSAGGTV
# notes: also called bispecific protein of NG-1111
# B7: anti-EpCAM-ScFv-rigid linker-RAET1G3 fusion protein (without a C-terminal tag) (other)
# chain: ELVMTQSPSSLTVTAGEKVTMSCKSSQSLLNSGNQKNYLTWYQQKPGQPPKLLIYWASTRESGVPDRFTGSGSGTDFTLTISSVQAEDLAVYYCQNDYSYPLTFGAGTKLEIKGGGGSGGGGSGGGGSEVQLLEQSGAELVRPGTSVKISCKASGYAFTNYWLGWVKQRPGHGLEWIGDIFPGSGNIHYNEKFKGKATLTADKSSSTAYMQLSSLTFEDSAVYFCARLRNWDEPMDYWGQGTTVTVSSTPSHLSHILPSFGLPTFNGLADPHSLCYDITVIPKFRPGPRWCAVQGQVDEKTFLHYDCGSKTVTPVSPLGKKLNVTTAWKAQNPVLREVVDILTEQLLDIQLENYIPKENRMWTTVHPGARKMKEKWENDKDMTMSFHYISMGDCTGWLEDFLMGMDSTLEPSAGGTV
# notes: also called bispecific protein of NG-1118
# B8: anti-EpCAM-ScFv-flexible linker-human CD19 EC domain fusion protein (without a C-terminal tag) (other)
# chain: ELVMTQSPSSLTVTAGEKVTMSCKSSQSLLNSGNQKNYLTWYQQKPGQPPKLLIYWASTRESGVPDRFTGSGSGTDFTLTISSVQAEDLAVYYCQNDYSYPLTFGAGTKLEIKGGGGSGGGGSGGGGSEVQLLEQSGAELVRPGTSVKISCKASGYAFTNYWLGWVKQRPGHGLEWIGDIFPGSGNIHYNEKFKGKATLTADKSSSTAYMQLSSLTFEDSAVYFCARLRNWDEPMDYWGQGTTVTVSSGAGGSGGSSGSDGASGSRPEEPLVVKVEEGDNAVLQCLKGTSDGPTQQLTWSRESPLKPFLKLSLGLPGLGIHMRPLAIWLFIFNVSQQMGGFYLCQPGPPSEKAWQPGWTVNVEGSGELFRWNVSDLGGLGCGLKNRSSEGPSSPSGKLMSPKLYVWAKDRPEIWEGEPPCVPPRDSLNQSLSQDLTMAPGSTLWLSCGVPPDSVSRGPLSWTHVHPKGPKSLLSLELKDDRPARDMWVMETGLLLPRATAQDAGKYYCHRGNLTMSFHLEITAR
# notes: also called bispecific protein of NG-1113; bispecific protein of NG-1115
# Biological target: T1, EpCAM
# Assay: flow cytometry, supernatant of transfected A549 cells on fresh A549 cells
# Procedure: These plasmids were transfected into A549 human lung tumour cells and cells cultured for 72 hours. Cell culture supernatants (SN) containing secreted bispecific proteins were collected and added to fresh untransfected A549 cells in suspension and incubated for 1.5 hours at room temperature. During this time, the bispecific proteins present in the SN can bind to the A549 cells through their anti-EpCAM ScFv or anti-HER2 ScFV portion. […] For designs having CD19 as CAR-T target, the CD19 extracellular domain portion of the protein was detected by flow cytometry using an anti-CD19 antibody.
row,Binder,binding result
1,B1,binds
2,B2,no binding
3,B3,binds
4,B4,no binding
5,B5,binds
6,B6,binds
7,B7,binds
8,B8,binds
